Test results taken from PMC13233326, “Myosin forces remodel F-actin for mechanosensitive protein recognition” (Nature, 2026).

Target: the molecule itself
Assay: cryo-EM structure; dual motor condition: GFP-tagged myosin V and myosin VI anchored to a holey carbon grid by an anti-GFP antibody, F-actin applied, then MB-ATP (20 mM MOPS pH 7.4, 5 mM MgCl2, 0.1 mM EGTA, 1 mM DTT, 1 mM ATP, 0.01% NP-40) with α-catenin ABD for 30 s before plunge freezing; 0.6 µM F-actin and 1 µM α-catenin ABD (sub-saturating); consensus map 10.4 Å, 3DVA-sorted map 12.3 Å

B1: C-terminal actin-binding domain (ABD) of human α-catenin (amino acids 664–906) (domain or fragment, UniProt P35221 664-906, looked up)
chain: IAGQSARAIMAQLPQEQKAKIAEQVASFQEEKSKLDAEVSKWDDSGNDIIVLAKQMCMIMMEMTDFTRGKGPLKNTSDVISAAKKIAEAGSRMDKLGRTIADHCPDSACKQDLLAYLQRIALYCHQLNICSKVKAEVQNLGGELVVSGVDSAMSLIQAAKNLMNAVVQTVKASYVASTKYQKSQGMASLNLPAVSWKMKAPEKKPLVKREKQDETQTKIKRASQKKHVNPVQALSEFKAMDSI
notes: the tags were removed with TEV protease; also called α-catenin ABD; αE-catenin ABD; source: E. coli Rosetta2(DE3), purified (Ni-NTA, TEV cleavage, anion exchange, SEC); not shown: His6, N-terminal, cleaved; strep tag, N-terminal, cleaved
binding result: binds
